According to article PMC5131779:

Tests used:
G5N Y474A = G5N Y474A (Homo sapiens, UniProt Q8TEQ6 1-726, Y474A); test: EMSA
G5N WT [1] = target: T1, G5N WT (Homo sapiens, UniProt Q8TEQ6 1-726); test: crystal structure
G5N WT [2] = target: T1, G5N WT; test: EMSA
G5N M357A = G5N M357A (Homo sapiens, UniProt Q8TEQ6 1-726, M357A); test: FP
G5N R335E = G5N R335E (Homo sapiens, UniProt Q8TEQ6 1-726, R335E); test: FP
G5N R359A = G5N R359A (Homo sapiens, UniProt Q8TEQ6 1-726, R359A); test: FP
G5N N13A = G5N N13A (Homo sapiens, UniProt Q8TEQ6 1-726, N13A); test: FP
G5N M403E = G5N M403E (Homo sapiens, UniProt Q8TEQ6 1-726, M403E); test: FP
G5N WT [3] = target: T1, G5N WT; test: FP
G5N Y383F = G5N Y383F (Homo sapiens, UniProt Q8TEQ6 1-726, Y383F); test: FP
G5N R33A = G5N R33A (Homo sapiens, UniProt Q8TEQ6 1-726, R33A); test: FP
G5N WT [4] = target: T1, G5N WT; test: EMSA; remark: listed apart in the source

T1 sequence (Q8TEQ6 1-726): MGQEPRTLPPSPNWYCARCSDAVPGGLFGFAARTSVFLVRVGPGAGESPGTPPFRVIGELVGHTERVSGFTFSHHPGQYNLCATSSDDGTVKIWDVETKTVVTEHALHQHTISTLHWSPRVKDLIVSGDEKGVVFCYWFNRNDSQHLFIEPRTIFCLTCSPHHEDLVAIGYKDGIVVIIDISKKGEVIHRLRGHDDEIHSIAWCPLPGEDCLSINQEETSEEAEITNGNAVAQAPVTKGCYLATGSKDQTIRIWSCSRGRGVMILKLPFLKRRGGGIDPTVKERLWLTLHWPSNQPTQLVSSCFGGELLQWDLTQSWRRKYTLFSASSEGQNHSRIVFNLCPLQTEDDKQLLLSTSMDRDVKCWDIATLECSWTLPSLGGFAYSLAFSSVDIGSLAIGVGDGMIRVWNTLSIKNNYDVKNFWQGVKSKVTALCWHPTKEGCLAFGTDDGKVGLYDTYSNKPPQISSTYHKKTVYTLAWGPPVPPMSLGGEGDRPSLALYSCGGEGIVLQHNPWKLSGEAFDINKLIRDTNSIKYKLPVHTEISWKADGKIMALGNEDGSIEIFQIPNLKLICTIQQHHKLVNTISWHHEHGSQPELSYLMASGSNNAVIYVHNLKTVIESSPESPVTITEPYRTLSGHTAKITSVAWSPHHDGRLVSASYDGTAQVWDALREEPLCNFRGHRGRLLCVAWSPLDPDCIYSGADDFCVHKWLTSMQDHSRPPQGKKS
Chain of G5N Y474A (Q8TEQ6 1-726 Y474A): as the sequence (Q8TEQ6 1-726) above, with Y474A counted along it
Chain of G5N N13A (Q8TEQ6 1-726 N13A): as the sequence (Q8TEQ6 1-726) above, with N13A counted along it
Chain of G5N M357A (Q8TEQ6 1-726 M357A): as the sequence (Q8TEQ6 1-726) above, with M357A counted along it
Chain of G5N Y383F (Q8TEQ6 1-726 Y383F): as the sequence (Q8TEQ6 1-726) above, with Y383F counted along it
Chain of G5N M403E (Q8TEQ6 1-726 M403E): as the sequence (Q8TEQ6 1-726) above, with M403E counted along it
Chain of G5N R33A (Q8TEQ6 1-726 R33A): as the sequence (Q8TEQ6 1-726) above, with R33A counted along it
Chain of G5N R335E (Q8TEQ6 1-726 R335E): as the sequence (Q8TEQ6 1-726) above, with R335E counted along it
Chain of G5N R359A (Q8TEQ6 1-726 R359A): as the sequence (Q8TEQ6 1-726) above, with R359A counted along it

GCAAUUUUUGACA (ssRNA) [U4 13-mer]: binds (G5N Y474A).

CAAUUUUUG (ssRNA) [U4 9-mer (soak)]: binds (G5N WT [1]).

AAUUUUUG (ssRNA) [U4 8-mer]: binds (G5N WT [2]).

Binder GCAAUUUUUGACA (ssRNA) [U4 13-mer, FITC] has a Kd (G5N M357A) of 8.1 µM, a Kd (G5N R335E) of 96.7 µM and a Kd (G5N R359A) of 46.6 µM. The Kd (G5N N13A) was 1.4 µM, the Kd (G5N M403E) was 2 µM and the Kd (G5N WT [3]) was 0.24 µM. The Kd (G5N Y383F) was 3.8 µM and the Kd (G5N R33A) was 3.3 µM.

AUUUUUG (ssRNA) [U4 7-mer (bare Sm site)]: binds (G5N WT [1]).

CAAUUUUUGAC (ssRNA) [U4 11-mer]: binds (G5N WT [4]).
